Measurements taken from paper PMC3925748.

Biological target: FUS (full-length recombinant protein; tag not told for these experiments) (UniProt P35637)
Test: cross-linking

FUS (full-length recombinant protein; tag not told for these experiments) (from UniProt P35637 1-526) (natural protein)
stoichiometry N: < 5
